Blank lines part the entries; values can stand above or below the molecule they belong to. No end group written: not given here.
How the values were obtained:
[1] = target: T1, murine endoplasmic reticulum aminopeptidase (Mus musculus, UniProt Q9EQH2); assay: Cleavage of dA40(S)-peptide conjugate by endoplasmic reticulum aminopeptidase (polyacrylamide gel electrophoresis); type: biochemical; settings: conjugate 1.5 μM, aminopeptidase 0.5 μg/ml, 25 mM Tris buffer pH 8.0, 37° C., 18 hours
T1 construct: purchased R & D Systems 2500-ZN
T1 sequence (Q9EQH2 1-930): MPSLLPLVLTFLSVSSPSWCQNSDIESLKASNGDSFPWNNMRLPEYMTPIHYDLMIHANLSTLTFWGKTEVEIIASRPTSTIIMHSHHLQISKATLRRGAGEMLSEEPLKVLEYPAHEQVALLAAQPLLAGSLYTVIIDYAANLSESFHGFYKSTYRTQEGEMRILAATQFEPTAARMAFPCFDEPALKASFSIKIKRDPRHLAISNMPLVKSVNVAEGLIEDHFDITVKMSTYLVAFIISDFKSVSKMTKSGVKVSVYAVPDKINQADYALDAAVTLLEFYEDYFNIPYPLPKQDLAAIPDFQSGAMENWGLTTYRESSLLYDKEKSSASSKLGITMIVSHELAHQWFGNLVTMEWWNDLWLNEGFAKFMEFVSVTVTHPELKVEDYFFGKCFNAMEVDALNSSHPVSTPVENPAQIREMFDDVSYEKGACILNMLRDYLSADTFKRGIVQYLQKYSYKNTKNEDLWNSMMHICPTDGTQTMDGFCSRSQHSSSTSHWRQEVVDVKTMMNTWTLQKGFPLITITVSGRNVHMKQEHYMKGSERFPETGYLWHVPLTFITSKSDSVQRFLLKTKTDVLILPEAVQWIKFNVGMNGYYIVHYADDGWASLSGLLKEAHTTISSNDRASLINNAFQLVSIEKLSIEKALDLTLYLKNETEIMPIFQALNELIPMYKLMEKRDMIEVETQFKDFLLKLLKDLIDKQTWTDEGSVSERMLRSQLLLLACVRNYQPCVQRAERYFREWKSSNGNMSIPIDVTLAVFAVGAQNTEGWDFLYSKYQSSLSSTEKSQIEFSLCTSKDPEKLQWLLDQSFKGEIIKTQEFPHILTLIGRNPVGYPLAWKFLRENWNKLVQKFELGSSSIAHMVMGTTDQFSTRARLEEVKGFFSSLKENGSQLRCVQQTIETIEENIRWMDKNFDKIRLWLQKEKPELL
Description: Each of the dA40(S)-peptide conjugates (1.5 μM) and murine endoplasmic reticulum aminopeptidase (0.5 μg/ml) (R & D Systems catalog Number 2500-ZN) were added to a 25 mM Tris buffer (pH 8.0) and the mixture was incubated at 37° C. for 18 hours. After completion of the reaction, polyacrylamide gel electrophoresis was carried out to observe the state of release from the dA40(S)-peptide conjugate.
In FIG. 2, pep(C)-dA40(S) represents a dA40(S)-peptide conjugate obtained by using peptide 1, dA40(S)-(C)pep represents a dA40(S)-peptide conjugate obtained by using peptide 2, dA40(S)-(C)pep long represents a dA40(S)-peptide conjugate obtained by using peptide 3, and dA40(S)-(C)pep long miss (L→K) represents a dA40(S)-peptide conjugate obtained by using peptide 4. […] Aminopeptidase is one of the enzymes that trim antigen peptides to present the antigen peptides to MHC. Accordingly, it is important for antigen presentation using the dA40(S)-peptide conjugate that even in the case of the peptide in which polydeoxyadenine is bonded to the N-terminal cysteine, the C-terminal side is composed of the hydrophobic amino acid residue. This fact was confirmed.

[2] = system: macrophages recovered from the peritoneal cavity; assay: Antigen presenting ability of dA40(S)-peptide conjugates, fluorescence microscopy after anti-OVA257-264/H-2Kb PE staining; type: cell-based, C57BL/6J mice; settings: conjugate 10 μM, 18 hours, 1.5×10^5 cells/well
Description: (§1) 3 ml of thioglycollate medium was administered to the peritoneal cavity of C57BL/6J mice 3 days later, macrophages were recovered from the peritoneal cavity. The resulting macrophages were seeded in 48 wells (1.5×10^5 cells/well), and further each of the dA40(S)-peptide conjugates was added to the wells at a concentration of 10 μM. […], the fixed cells were stained with Anti-Mouse OVA257-264 (SIINFEKL) peptide bound to H-2Kb PE, and the resulting cells were subjected to fluorescence microscopic observation.
In FIG. 3, pep(C)-dA40(S) represents a dA40(S)-peptide conjugate obtained by using peptide 1, dA40(S)-(C)pep represents a dA40(S)-peptide conjugate obtained by using peptide 2, dA40(S)-(C)pep long represents a dA40(S)-peptide conjugate obtained by using peptide 3, and dA40(S)-(C)pep long miss (L→K) represents a dA40(S)-peptide conjugate obtained by using peptide 4.

[3] = system: OVA257-264 presenting cells (CFSE^high spleen cells); assay: In vivo CTL assay; design: species or system C57BL/6J mice; settings: target cells given day 7, counted after 24 hours
Description: SPG/dA40(S)-OVA257-264 (20, 100, 500 ng in the amount of OVA257-264) and CpG-dA40(S)/SPG (30 μg in the amount of CpG-dA) were intradermally administered to C57BL/6J mice.
On day 7 of administration, spleen cells were provided according to the following procedure. Spleen cells excised from normal C57BL/6J mice were treated with 10 μg/ml of OVA257-264 at 37° C. for 90 minutes. Thereafter, the spleen cells were washed three times with PBS, and the spleen cells were labeled with 5 μM carboxyfluorescein succinimidyl ester (CFSE); Invitrogen, Carlsbad, Calif.). Further, spleen cells not treated with OVA257-264 were similarly labeled with CFSE (0.5 μM). The labeled cells were washed three times with PBS. The spleen cells treated with OVA257-264 (CFSE^high) and the spleen cells not treated with OVA257-264 (CFSE^low) were mixed so that the number of the treated spleen cells was equal to the number of the untreated spleen cells. […] After that, the spleen cells were removed from the mice, and the CFSE-labeled cells were counted by flow cytometry.
OVA257-264 presenting cells were not observed when the dose of OVA257-264 was 100 ng/head or more. […] The difference in ability of inducing CTL reaction between SPG/dA40(S)-OVA257-264 and OVA257-264-click-dA40(S)/SPG was consistent with the result of Example 5 in which the antigen presenting ability was evaluated.

[4] = system: macrophages recovered from the peritoneal cavity; assay: Antigen presenting ability of SPG/dA40(S)-OVA257-264, flow cytometry after anti-OVA257-264/H-2Kb PE staining; type: cell-based, C57BL/6J mice; settings: concentration of OVA257-264 5 μg/ml, 18 hours
Description: as §1, with “SPG/dA40(S)-OVA257-264, dA40(S)-OVA257-264, or OVA257-264-click-dA40(S)/SPG” for “each of the dA40(S)-peptide conjugates”, “added” for “added to the wells”, “OVA257-264 of 5 μg/ml.” for “10 μM.”, “analyzed by flow cytometry.” for “subjected to fluorescence microscopic observation.”

[5] = target: T2, dA40(S)-peptide conjugate obtained by using peptide 2
T2 chain: CSIINFEKL

[6] = target: T3, dA40(S)-peptide conjugate obtained by using peptide 1
T3 chain: SIINFEKLC

[7] = target: T4, dA40(S)-peptide conjugate obtained by using peptide 3
T4 chain: CQLESIINFEKL

state of release from the dA40(S)-peptide conjugate after enzyme treatment [1]: not recognized by the enzyme
Molecule: dA40(S)-(C)pep long miss (L→K): dA40(S) disulfide-bonded via LC-SPDP linker to N-terminal cysteine of peptide 4, CSIINFEKK (SEQ ID NO: 4) (cyclised or stapled)
fluorescence of OVA257-264 (SIINFEKL) bound to H-2Kb (antigen presentation) [2]: antigen presentation hardly occurred

Molecule: SPG/dA40(S)-OVA257-264: complex of dA40(S)-OVA257-264 and schizophyllan (SPG) (SIINFEKL; also: dA40(S) conjugate, site not given here, complex with schizophyllan (SPG); UniProt P01012 258-265, looked up, fragment)
decrease in OVA257-264 presenting cells (CFSE^high spleen cells) ([3]; intradermal, 20, 100, 500 ng OVA257-264, together with CpG-dA40(S)/SPG 30 μg): observed depending on the dose of OVA257-264 | dose of OVA257-264 at which OVA257-264 presenting cells were not observed ([3]; intradermal, together with CpG-dA40(S)/SPG 30 μg): ≥ 100 ng/head

Molecule: dA40(S)-OVA257-264: conjugate of dA40(S) and ovalbumin antigen peptide OVA257-264 (SIINFEKL), prepared in the manner described in Example 1 (also: dA40(S) conjugate, site not given here; UniProt P01012 258-265, looked up, fragment)
antigen (OVA257-264) presentation level [4]: the same as that of SPG/dA40(S)-OVA257-264

Molecule: pep(C)-dA40(S): dA40(S) disulfide-bonded via LC-SPDP linker to C-terminal cysteine of peptide 1, SIINFEKLC (SEQ ID NO: 1) (cyclised or stapled)
state of release from the dA40(S)-peptide conjugate after enzyme treatment [1]: no change was observed in the electrophoretic distance | fluorescence of OVA257-264 (SIINFEKL) bound to H-2Kb (antigen presentation) [2]: Very weak fluorescence

B1: murine endoplasmic reticulum aminopeptidase (R & D Systems catalog Number 2500-ZN) (protein)
chain: DIESLKASNGDSFPWNNMRLPEYMTPIHYDLMIHANLSTLTFWGKTEVEIIASRPTSTIIMHSHHLQISKATLRRGAGEMLSEEPLKVLEYPAHEQVALLAAQPLLAGSLYTVIIDYAANLSESFHGFYKSTYRTQEGEMRILAATQFEPTAARMAFPCFDEPALKASFSIKIKRDPRHLAISNMPLVKSVNVAEGLIEDHFDITVKMSTYLVAFIISDFKSVSKMTKSGVKVSVYAVPDKINQADYALDAAVTLLEFYEDYFNIPYPLPKQDLAAIPDFQSGAMENWGLTTYRESSLLYDKEKSSASSKLGITMIVSHELAHQWFGNLVTMEWWNDLWLNEGFAKFMEFVSVTVTHPELKVEDYFFGKCFNAMEVDALNSSHPVSTPVENPAQIREMFDDVSYEKGACILNMLRDYLSADTFKRGIVQYLQKYSYKNTKNEDLWNSMMHICPTDGTQTMDGFCSRSQHSSSTSHWRQEVVDVKTMMNTWTLQKGFPLITITVSGRNVHMKQEHYMKGSERFPETGYLWHVPLTFITSKSDSVQRFLLKTKTDVLILPEAVQWIKFNVGMNGYYIVHYADDGWASLSGLLKEAHTTISSNDRASLINNAFQLVSIEKLSIEKALDLTLYLKNETEIMPIFQALNELIPMYKLMEKRDMIEVETQFKDFLLKLLKDLIDKQTWTDEGSVSERMLRSQLLLLACVRNYQPCVQRAERYFREWKSSNGNMSIPIDVTLAVFAVGAQNTEGWDFLYSKYQSSLSSTEKSQIEFSLCTSKDPEKLQWLLDQSFKGEIIKTQEFPHILTLIGRNPVGYPLAWKFLRENWNKLVQKFELGSSSIAHMVMGTTDQFSTRARLEEVKGFFSSLKENGSQLRCVQQTIETIEENIRWMDKNFDKIRLWLQKEKPELL
release of dA40(S) from the conjugate, polyacrylamide gel electrophoresis after enzyme treatment [5]: a band of dA40(S) was slightly observed after the enzyme treatment | release of dA40(S) from the conjugate, polyacrylamide gel electrophoresis after enzyme treatment [6]: no change was observed in the electrophoretic distance even when subjected to enzyme treatment | release of dA40(S) from the conjugate, polyacrylamide gel electrophoresis after enzyme treatment [7]: the peptide was almost completely released and a band of dA40(S) was observed

— US20190175728A1, “NUCLEIC ACID-ANTIGEN PEPTIDE CONJUGATE” (NAPAJEN PHARMA, INC., priority 2017, published 2019)
